Measured values published in patent publication US20100178296A1 (SCHERING, published 2010).

T1: wild-type human CD200RLa extracellular domain fused to the Fc region of human IgG1 (human, UniProt Q6Q8B3 24-239)
T1 construct: also called wild-type human CD200RLa fusion protein; not shown: Fc region of human IgG1
T1 sequence: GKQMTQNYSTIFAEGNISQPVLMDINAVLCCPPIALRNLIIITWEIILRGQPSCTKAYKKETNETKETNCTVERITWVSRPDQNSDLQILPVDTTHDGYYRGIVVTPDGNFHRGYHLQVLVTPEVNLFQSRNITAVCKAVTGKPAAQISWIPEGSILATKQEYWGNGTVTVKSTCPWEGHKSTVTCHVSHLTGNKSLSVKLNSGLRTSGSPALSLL

T2: CYS mutated human CD200RLa extracellular domain fused to the Fc region of human IgG1 (human, UniProt Q6Q8B3 24-239)
T2 construct: also called CYS mutated human CD200RLa fusion protein; Human CD200RLa-Cys-mut; not shown: Fc region of human IgG1
T2 chain: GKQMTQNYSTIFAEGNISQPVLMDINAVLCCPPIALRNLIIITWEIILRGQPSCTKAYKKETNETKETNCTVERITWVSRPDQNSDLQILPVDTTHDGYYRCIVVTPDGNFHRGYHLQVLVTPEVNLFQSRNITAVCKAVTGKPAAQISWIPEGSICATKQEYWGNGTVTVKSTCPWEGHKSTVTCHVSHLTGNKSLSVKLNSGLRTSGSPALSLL

B1: CYS mutated human CD200RLa, full length, on Ba/F3 cells expressing human DAP12 (receptor)
chain: GKQMTQNYSTIFAEGNISQPVLMDINAVLCCPPIALRNLIIITWEIILRGQPSCTKAYKKETNETKETNCTVERITWVSRPDQNSDLQILPVDTTHDGYYRCIVVTPDGNFHRGYHLQVLVTPEVNLFQSRNITAVCKAVTGKPAAQISWIPEGSICATKQEYWGNGTVTVKSTCPWEGHKSTVTCHVSHLTGNKSLSVKLNSGLRTSGSPALSLLIILYVKLSLFVVILVTTGFVFFQRINHVRKVL
notes: also called Human CD200RLa-Cys-mut; CYS mutated form of the receptor

Assays:
[1] = molecular target: T3, human DAP12 with a FLAG epitope at the N terminus, in Ba/F3 cells (human, UniProt O43914 22-113); assay: surface appearance of FLAG-DAP12 on Ba/F3 transfectants, flow cytometry with anti-FLAG M2
T3 construct: whole, on cells; also called FLAG-tagged DAP12
T3 sequence (O43914 22-113): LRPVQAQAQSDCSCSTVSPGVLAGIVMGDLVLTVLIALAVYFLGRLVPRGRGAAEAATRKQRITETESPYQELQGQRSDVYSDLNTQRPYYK

[2] = molecular target: T1, wild-type human CD200RLa extracellular …; assay: indirect ELISA on the fusion protein
[3] = molecular target: T2, CYS mutated human CD200RLa …; assay: indirect ELISA on the fusion protein
[4] = molecular target: B1; assay: flow cytometry on Ba/F3 transfectants

binding result [1]	binding result [2]	binding result [3]	binding result [4]	Binder
binds	–	–	–	B1
–	no binding	no binding	no binding	DX182, rat anti-human inhibitory CD200R monoclonal antibody (antibody, V domains shown, Rat hybridoma antibody; Rat IgG2a served as its isotype control; also called rat DX182; anti-huCD200R) VL: EVQMTQSPSTLTASPGESVSINCKASKNIRSYLAWYQQKPGKPNKLLIYSGSTLHSGTPSRFSGSGFGTDFTLTIRNLEPEDFGLYYCQQHHEYPLTFGSGTKLEIKR VH: EIQLQESGPGLVKPSQSLSLTCSVTGYTITSGYDWSWIRKFPGNKMEWMGYINYGGSTNYKPSLGSRISITRDTSKNQFFLQLNSVSPEDTATYYCAKYNEYKSYIYDWYFDFWGPGTMVTVSS
